Assay: yeast display, Sf9 membrane polyspecificity reagent, FACS + sequencing; frameworks hold sequencing errors
Outline: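 Polyreactivity labels are assigned by the sorting gate from which each nanobody was recovered. The gates were low and high (top ~1%), set on anti-HA fluorescence for expression and streptavidin fluorescence for reagent binding. Before sorting, galactose-induced (36–48 hours) yeast display cells were stained for 1 hour at 4 °C with 10% biotinylated, detergent-solubilized Sf9 membrane reagent.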

Row | Sequence | polyreactivity (PSR sort gate)
1 | QVQLVESGGGLVQAGGSLRLSCAASGRTFGSYAMGWYRQAPGKERELVAAISYRGSTYYADSVKGRFTISRDNAKNTVYLQMNSLKPEDTAVYYCAARSYGGYGYWGQGTQVTVSS | high polyreactivity
2 | QVQLVESGGGLVQAGGSLRLSCAASGRIFGYYAMGWYRQAPGKERELVADITESGTSTYYADSVKGRFTISRDNAKNTVYLHMNILKPEDTAVYYCAAGYWWRYALYGYWGQGTQVTVSS | low polyreactivity
3 | QVQLVESGGGLVQAGGSLRLSCAASGFIFYDYAMGWYRQAPGKERELVAAISSGGSTNYADSVKGRFTISRDNAKNTVYLQMNSLKPEDTAVYYCNVDYGVHVPPRDYWGQGTQVTVSS | low polyreactivity
4 | QDQLVESGGGLVQAGGSLRLSCAASGRILRQYAMGWYRQAPGKERELVAAITSGDSTYYADSVKGRFTISRDNAKNTVYLQMNSLKTEDTAVYYCAAYSWLYEGYEYWGQGTQVTVSS | high polyreactivity
5 | QVQLQESSGGLVQAGGSLRMSCAASGTIFHFHIMGWYRQAPGKESEFVAAISYGTSTYYADSVKGRFTISRDNAKNTVYLQMNSQKPEDSAVNYCAVYDYLEVYCWYWGQGTQVTVSS | low polyreactivity
6 | QVQLVESGGGLVQAGGSLRLSCAASGRTFARNAMGWYRQAAGKERELVAAITSIGTRTYYADAVKGRFTISRDNAKNTVYLQMNSLKPEDTAVYYCNKKRTADYDYWGQGTQVSVSS | low polyreactivity
7 | QVQLVESGGGLVQAGGSLRLSCAASGITFGSYAMGWYRQAPGKERELVAAITWRGGSTFYADSVKGRFTISRDNAKNTVYLQMNSLKPDDTAVYYCAATLTKYLPRYYWGQGTQVTVSS | low polyreactivity
8 | QVQLVESGGGLVQAGGSLRLSCAASGSTFRVNDMGWYRQAPGKESEFVAGISWSGGSTYYADSVKGRFTISRDNAKNTVYLQMNTLKPEETAVYYCAADGYGQGNNRNYNYGGQGTQVTVSS | low polyreactivity
9 | QVQLVESGGGLVQAGGSLRLTCAASGSTFKSYAMGWYRQDPGKERELVAAITVSGGSTYYADSVKGRFTISRDNAKNTVYLMMNSLTPEDTSVYYCAADSVLLKDTGYDYWGQGTQVTVSS | low polyreactivity
10 | QVQLVESGGGLVQAGGSLRLSCASSGIIFLTYAMGWYRQAPGKERELVAAINSTGSTNYADSVKGRFTISRDNAKYSVYLQMNSLKPDDTAVYYCAAEGLPYVRVFDFVSRYDYWGQGTQVTVSS | low polyreactivity
11 | QVQLVESGGGLVQAGGSLRLSCAASGLIFPLYAMGWYRQAPGKERELVAAISRTGVSTDYADSVKGRFTISRDNAKNTVYLQMNSLKPEDTAVYYCNKVRTPRRRYDYWGQGTQVTVSS | low polyreactivity
12 | QVQLVESGGGLVQAGGSLRLSCAASGSIFEIYAMGWYRQAPGKERELVASITWSGGSTYYADSVKGRFTISRDNAKNTVYLQMNSRKPEDTAVYYCATDKLYGRTVRMDYWGQGTQVTVSS | low polyreactivity
13 | QVQLVESGGGLVQAGCSLRLSCAASGSIFSSYAMGWYRQAPGKERELVAAITGSGGSTDYADSVKGRFTISRDNAKNTVYLQMNSLKPEDTAVYYCAARPFWPGNSYYYRYYYWGQGTQVTVSS | low polyreactivity
14 | QVQLVESGGGLVQAGGSLRLSCAASGFTFKYYAMGWYRQAPGKERELVAVISSSGGSTYYADSVKGRFTISRDNAKNTVYLQMNSLKPEDTAVYYCNTDAYWHRQQYDYWGQGTQVTVSS | low polyreactivity
15 | QVHLVESGGGLFQAVLSLRLSCAASGFIFQRYPMGWYRQAPGKESELVAAISSGGGTNYADSVKGRFTISRDNAKKTVYLQLNSLIPEDTAVYYCARPYYVYSQSSDYWGQGTQVTVSS | low polyreactivity
16 | QVQLVESGGGLVQAGGSLRLSCAASGRTFWYYTMGWYRQAPGKERELVAAISSGGTTNYADSVKGRFTISRDNAKNTVYLQMNSLKPEDTAVYYCAAEANSGDGYYWGQGTQVTVSS | high polyreactivity
17 | QVQLVESGGGLVQAGGSLRLSCAPSGYTFIFNVMGWYRQAPGKERELVAAISYSGGSTNYADSVKGRYTTSRDNAKNTVYFQMNSLKPEDTAVYYCNARTVSRNGYQDDYWGQGTQVTVSS | low polyreactivity
18 | QVQLVESGGGLVQAGGSLRLSCAASGFIFIVNAMGWYRQAPGKERELVATISSSGDITRYADSVKARFTISRDNAKNTVYLQMNSLKPEDTAVYYCAARLWTGYWGQGTQVTVSS | high polyreactivity
19 | QVQLVESGGGLVQAGGSLRLSCAASGSTFVYYAMGGYRQAPGKERELDAAITSSGVRTYYADSVKGRFTISRDNAKNTVYLQMNSLKPEVTAVYYCAKRSTRLYSFTYQGYGYWGQGTQVTVSS | high polyreactivity
20 | QVQLLESGGGLVQAGGSLRLSCASSGRTYWYYAMGWYRQAPGKERELVATITRSTGSTYYADSVKGRFTISRDNAKNTGYLQMNSLKPEDTAVYYCARLYYFNGDYWGQGTQVTVSS | high polyreactivity
21 | QVQLVESGGGLVQAGGSLRLSCAASGSIFKRYAMGWYRQAPGKERELVAAISTSGGRTYYADSVKGRFTISRDNAKNTVYLQMNRLNQEDTAVYYCAADIWARYYFWGFEHDYWGQGTQVTVSS | low polyreactivity
22 | QVQLVDSGGGLVQAGGSLRLSCAASGFIFSSYAMVWYRQAPGKERELVAAISRSGGYTYYADSVKGRFTISRDNAKNTVYFQMNSLNAEDTAVYYCATRSYMPGVRRGYDYWGKGTQVTVSS | high polyreactivity

Row | Sequence | polyreactivity (PSR sort gate)
23 | QVQLVESGEGLVQAGGRLRLSCAPSGSTFMTYAMGWYRQAPGKERELVAAIRWSGGGTYYADSVKGRFTISRDNAKNTVYLQMNSLKPEDTAVYYGAADHFNYTPGRDYWGQGTQVTVSS | low polyreactivity
24 | QVQLVESGGGLVQAGGSLRLSCAASGIIFSPYAMGWYRQAPGNERELVAAISYSGGSTYYADSVKGRFTISRDNAKNTVYLQMNSLKPEDTAVYYCAVVYSYYLAVLGYWDYDYWGQGTQVTVSS | low polyreactivity
25 | QVQLVESGVGLVQAGGSLRLSCAASGIIFYDNALGWYRQAPGKERELVAAITDSGGTTYYADSVKGRFTISRDNAKNTVYLEMNSLKPEDNAVYYCAAETTATHGFAYDYWGQGTQVTVSS | low polyreactivity
26 | QVQHVESGRGLVQAGGSLRLSCAASGLTFSRYAMGWYRQAPGKERELVAAITRSGGSTYYADSVKGRFTISRDNEKNTVYLQMKSLKPEDSAVYYCARTFTDRYGHWYGYWGQGTQVTVSS | high polyreactivity
27 | QVQLVESGGGLVQAGGSLRLSCAASGRSFDWDVLGWYSQVPGKERELVAAIDDSGGSTYYADSVKGRFTISRDNAKNTVYLQMNSLKPEDTAVYYCAAASYEYALDEHMDYWGQGTQVTGSS | low polyreactivity
28 | QVQLVESGGGLVQAGGSLRLSCAASGRIFGIYTMGWYRQAPGKERELVAAISRSGGSTYYADSVKGRFTISRDNAKNTVYLQMNSLKPEDTAVYYCAAVPYRFPGYGFDSWGQGTQVTVSS | high polyreactivity
29 | QVQLVESGGGLVQAGGSLRLSCAASGITFTSYAMGWYRQAPGKERELVAAISSSGVRTYYADSVKGRFTISRDNAKNTVYLQMNSLKPEDTAVYYCATRRRVLNCYDYWGQGTQVTVSS | high polyreactivity
30 | QVQLVESGGGLVQAGGSLRLSCAASGSTFGGYPMGRYRQAPGKERELGAAITWSGSSTTYADSVKGRFTISRDNAKKTVYLQMNSLKPEETAVYYCAAEAQDSTYPQYDYWGQGTLVTVSS | low polyreactivity
31 | QDQLVESGGGLFQEGGSLRLSCSASGSTFWVNTIRWYRQAPGKATELVADISSGGNTYYAHSVKGRFTISRDNAKNTVYLQMNSLKTEDTAVYYCNADPFTRWVIRDDYGGQGTQVTVSS | low polyreactivity
32 | QVQLVETAGGLVQAGGSLRLSCAASGSTIRYNVMGWYRQAPGKERELVAAITINGGSTNYADSVKGRFTISRDNAKNTVYLQMNSLKPEDTAVYYCAAAKSYRSGSWYEYWGQGTQVTVSS | high polyreactivity
33 | QVQLVESGGGLVQAGGSLRLSCAASGSTFGYNAMGWYRQAPGKERELVARITSSGGSTYYADSVKGRFTISRDNAKNTVYLQMNSLKPEDTAVYYCAAGYPYRAVYRYYYWGQGTQVTVSS | high polyreactivity
34 | QVQLVESGGGLVQAGGSLRLSCAASGPTFYLYDTMGWYRQAPGKERELVAAISWDDGDTYYADSVKGRFTISRDNAKTTVYLQMNSLKPEDTAVYYCAAEYLSGAHGYWGQGTHVTVSS | low polyreactivity
35 | QVQLVESGGGLVQAGGSLRLSCAASGRTFAWYTMGWYRQAPGKERELVAAISGSGGSTYYADSVKGRFTISRDNAKNTVYLQRKSLKPEDTAVYYCARRVHSYYGHTRYYYWGQGTQVTVSS | high polyreactivity
36 | QVQLVESGGGLVQEGGSLRLSCASSGFIFEDYAKGWYRQARGKERELVAAMRSNDDSTYYADSVKGRFTISRDNAKNSVYFQMNSLKPEDTAVYYCAAATYGTRLRRYYYWGQGSQVTVSS | high polyreactivity
37 | QVQLVESGGGLVQAGGSLRLSCAASGSIFFYYAMGWYSQAPGTERELVAAIRNGGSTKYADSVKGRFTISRDNAKNTVYLQMNSLKPEDTAVYYCAAGYPVTRRTIRFDYWGQGTQVTVSS | high polyreactivity
38 | QVQLVESGGGLVQAGGSLRLSCAASGNTFFVYAMGWDRQAPGKERELVATITLNGGSTYYADSVKGRFTISRDNAKNTVYLQMNSLKPEDTAVYYCAVEPDVYPSWYYYVDYDYWGQGTQVTVSS | low polyreactivity
39 | QVQLVESGGGLVQAGGSLRLSCAASGIIFGVYAMGWYRQAPGKERELVASIRYSSVRTYYADSVKGRFTISRDNAKNTVYLQMNSLKPEDTAVYYCAKYYVWPRYGYWGQGTQVTVSS | high polyreactivity
40 | QVQLVESGGGLVQAGGSLRLSCAASGSTFFPYAMGWYRQAPGKVRELVAAIRWSGGRTYYADSVKGRFTISRDNPKNTVFLQMNSLKPEDTAVYYCNGYSVYVRGEYWGQGTQVTVSS | high polyreactivity
41 | QVQLVESGGGLVQAGGSLRLSCAASGYTFYDYAMGWYRQAPGKERELVARINGGGGTNYADSVKGRFTISRDNAKNTVYLQMNSLKPEDTAVYYCAADVYFRQGDVDLLRYDYWGQGTQVTVSS | low polyreactivity
42 | QVHLVESGGGLVQAGGSLRLSCAASGLTLNSYVMGWYRQAPGKERELVARITSGGRTNYADSVKGRFTISRDNAKNTVYLQMNSVKPEDTAVYYCAVRSLSYARGGRSDFKVGYWGQGTQVTVSS | low polyreactivity
43 | QVQLVESGGGLVQAGGSLRLSCAASGRTFWYYTMGWYRQAPGKERELVAAISGSGGRTYYADSVKGRFTISRDNAKNTVYLQMNSLKPEDTAVYYCAARRAYFVAYIYDRDYWGQGTQVTVSS | high polyreactivity

Reference: the nanobody polyreactivity screen of Harvey et al. (2022)
